B1: SNURF (parent)
chain: QVPVVDFQAELRQAFLAETPRGG
B2: CROP (parent)
chain: VFGRGDNISDVSKFLEDDKWMEE

Variants of: B1
Assay: protein stability index of a GFP-peptide fusion (GPS, HEK-293T) (PSI 1-6); higher = more stable
Settings: c terminus: native
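Note: lentivirally expressed fusions sorted by FACS into six bins by GFP to DsRed ratio, PSI derived from sequencing read proportions per bin multiplied by bin number.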

Row | Variant | protein stability index
1 | F15K | 2.48
2 | F15W | 2.83
3 | F15T | 3.19
4 | F15Y | 1.94
5 | Q1S | 2.31
6 | Q1N | 2.49
7 | Q1T | 3.88
8 | F7S | 3.5
9 | F7T | 4.49
10 | F7W | 2.9
11 | A14K | 3.05
12 | A14F | 2.58
13 | A14D | 2.99
14 | A14H | 2.3
15 | A14L | 3.5
16 | A14E | 3.09
17 | A14P | 2.12
18 | V2G | 2.61
19 | V2Q | 1.5
20 | V2K | 3.98
21 | E18C | 3.41
22 | E18P | 3.59

Row | Variant | protein stability index
23 | E18S | 2.02
24 | E18F | 1.67
25 | E10P | 2.93
26 | E10K | 2.48
27 | E10Q | 2.59
28 | E10M | 3.19
29 | E10F | 4
30 | E10A | 1.34
31 | E10D | 2.15
32 | V4M | 3.48
33 | V4F | 3.43
34 | V4W | 2.09
35 | V4A | 3.33
36 | V4L | 2.5
37 | V4T | 2.69
38 | Q13C | 1.71
39 | Q13M | 2.42
40 | Q13S | 3.53
41 | Q13Y | 2.73
42 | Q13G | 4.32
43 | Q13D | 2.15
44 | Q13A | 2.68

Row | Variant | protein stability index
45 | D6C | 4.03
46 | D6R | 2.21
47 | D6N | 3.2
48 | D6E | 4.69
49 | G23W | 1.5
50 | G23A | 2.38
51 | G23Q | 2.42
52 | G23T | 3.93
53 | G23N | 1.92
54 | G23H | 1.77
55 | G23D | 3.97
56 | G23L | 3.09
57 | G23Y | 3.06
58 | G23I | 2.06
59 | G23E | 1.85
60 | G23V | 2.52
61 | G23C | 1.66
62 | G23K | 4.37
63 | G23M | 1.71
64 | G23F | 2.27
65 | G23S | 3.16
66 | G22K | 2.04

Row | Variant | protein stability index
67 | G22D | 4.09
68 | G22R | 2.73
69 | G22I | 2.95
70 | G22Y | 2.51
71 | G22N | 2.5
72 | G22M | 1.95
73 | G22E | 3.26
74 | G22C | 1.99
75 | G22S | 1.94
76 | G22F | 2.29
77 | G22T | 2.57
78 | G22L | 2.66
79 | G22H | 2.79
80 | G22V | 3.34
81 | R12E | 2.54
82 | R12P | 2.89
83 | R12Q | 3.27
84 | R12M | 3.51
85 | R12Y | 3.86
86 | R12N | 2.92
87 | R21A | 4.22
88 | R21K | 1.78

Row | Variant | protein stability index
89 | R21L | 2.66
90 | R21N | 2.15
91 | R21P | 3.47
92 | Q8V | 1.43
93 | Q8Y | 2.98
94 | Q8C | 3.49
95 | Q8T | 3.31
96 | Q8L | 3.47
97 | Q8K | 5.19
98 | V5D | 1.7
99 | V5I | 4.13
100 | V5S | 4.05
101 | V5H | 3.52
102 | V5W | 3.5
103 | V5T | 2.34
104 | V5L | 3.11
105 | V5A | 2.08
106 | V5F | 2.39
107 | P3D | 3.02
108 | P3Q | 4.82
109 | P3V | 3.01
110 | L11R | 3.83

Row | Variant | protein stability index
111 | L11I | 2.03
112 | L11S | 2.27
113 | L11F | 3.51
114 | L11K | 4.47
115 | L11D | 2.77
116 | L11A | 3.6
117 | L11P | 3.34
118 | L16P | 3.02
119 | L16Y | 3.57
120 | L16W | 1.96
121 | L16A | 2.42
122 | L16H | 2.13
123 | L16F | 2.03
124 | A17S | 2
125 | A17I | 3.76
126 | A17K | 3.45
127 | A9D | 2.47
128 | T19A | 3.59
129 | T19K | 3.17
130 | T19C | 3.31
131 | T19F | 2.29
132 | T19R | 1.63

Variants of: B2
Assay: as above
Settings: c terminus: native

Row | Variant | protein stability index
133 | D10M | 2.75
134 | D10N | 2.04
135 | S9D | 2.12
136 | S12F | 2.33
137 | E16C | 1.46
138 | E16M | 1.1
139 | E16S | 2.03
140 | K13P | 1.14
141 | G5M | 1.14
142 | G5K | 3.07
143 | D18T | 1.78
144 | D18L | 1.97
145 | G3C | 2.48
146 | N7H | 2.12
147 | N7T | 1.89
148 | N7S | 1.41
149 | N7V | 1.53
150 | I8P | 2.03

Row | Variant | protein stability index
151 | I8T | 2.62
152 | E23R | 4.6
153 | D17T | 2.04
154 | V11S | 2.71
155 | E22I | 3.81
156 | L15H | 3.35
157 | L15N | 3.32
158 | L15I | 1.93
159 | R4L | 1.98
160 | R4H | 2.19
161 | R4F | 2.19
162 | R4Q | 1.99
163 | R4N | 2.1
164 | V1S | 2.11
165 | V1P | 2.76
166 | V1L | 2.48
167 | F2D | 3.87

Reference: the supplement of paper PMC10567573
